Laboratory results reported in patent US20170022281A1 (AbbVie / Abbott, published 2017).

T1: cyno PRLR ECD-his6 protein (cyno)
T1 chain: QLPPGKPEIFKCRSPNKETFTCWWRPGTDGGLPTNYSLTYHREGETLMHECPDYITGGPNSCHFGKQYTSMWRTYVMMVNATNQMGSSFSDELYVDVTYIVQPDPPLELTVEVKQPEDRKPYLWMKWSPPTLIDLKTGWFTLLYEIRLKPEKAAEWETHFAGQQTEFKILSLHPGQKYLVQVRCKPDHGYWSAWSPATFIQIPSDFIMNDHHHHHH

T2: human PRLR ECD-Fc fusion protein (human, UniProt P16471 25-233)
T2 construct: not shown: Fc region (captured by goat anti-human Fc)
T2 sequence: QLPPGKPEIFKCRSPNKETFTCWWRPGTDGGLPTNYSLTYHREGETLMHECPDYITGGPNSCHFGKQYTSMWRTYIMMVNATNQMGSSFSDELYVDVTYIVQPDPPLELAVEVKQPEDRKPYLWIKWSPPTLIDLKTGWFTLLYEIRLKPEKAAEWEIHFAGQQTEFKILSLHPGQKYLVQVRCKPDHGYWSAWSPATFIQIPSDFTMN

T3: mouse PRLR on Baf3-mPRLR cells (mouse, UniProt Q08501 20-608)
T3 sequence (looked up): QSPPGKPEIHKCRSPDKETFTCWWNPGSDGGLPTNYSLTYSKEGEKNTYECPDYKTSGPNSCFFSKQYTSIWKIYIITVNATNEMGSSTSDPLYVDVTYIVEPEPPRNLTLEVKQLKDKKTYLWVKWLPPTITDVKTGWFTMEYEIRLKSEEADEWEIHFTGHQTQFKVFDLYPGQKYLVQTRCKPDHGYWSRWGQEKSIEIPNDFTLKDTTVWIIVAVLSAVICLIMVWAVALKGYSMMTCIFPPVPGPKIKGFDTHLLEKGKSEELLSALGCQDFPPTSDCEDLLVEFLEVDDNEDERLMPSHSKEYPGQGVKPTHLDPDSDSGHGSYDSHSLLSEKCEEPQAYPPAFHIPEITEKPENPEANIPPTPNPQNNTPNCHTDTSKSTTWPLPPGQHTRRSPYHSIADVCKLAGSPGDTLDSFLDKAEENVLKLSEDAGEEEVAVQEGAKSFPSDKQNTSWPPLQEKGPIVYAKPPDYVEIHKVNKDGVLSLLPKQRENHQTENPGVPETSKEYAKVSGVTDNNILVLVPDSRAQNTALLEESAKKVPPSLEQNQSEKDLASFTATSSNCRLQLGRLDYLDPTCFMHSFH

T4: human PRLR on cells (human, UniProt P16471 25-622)
T4 sequence: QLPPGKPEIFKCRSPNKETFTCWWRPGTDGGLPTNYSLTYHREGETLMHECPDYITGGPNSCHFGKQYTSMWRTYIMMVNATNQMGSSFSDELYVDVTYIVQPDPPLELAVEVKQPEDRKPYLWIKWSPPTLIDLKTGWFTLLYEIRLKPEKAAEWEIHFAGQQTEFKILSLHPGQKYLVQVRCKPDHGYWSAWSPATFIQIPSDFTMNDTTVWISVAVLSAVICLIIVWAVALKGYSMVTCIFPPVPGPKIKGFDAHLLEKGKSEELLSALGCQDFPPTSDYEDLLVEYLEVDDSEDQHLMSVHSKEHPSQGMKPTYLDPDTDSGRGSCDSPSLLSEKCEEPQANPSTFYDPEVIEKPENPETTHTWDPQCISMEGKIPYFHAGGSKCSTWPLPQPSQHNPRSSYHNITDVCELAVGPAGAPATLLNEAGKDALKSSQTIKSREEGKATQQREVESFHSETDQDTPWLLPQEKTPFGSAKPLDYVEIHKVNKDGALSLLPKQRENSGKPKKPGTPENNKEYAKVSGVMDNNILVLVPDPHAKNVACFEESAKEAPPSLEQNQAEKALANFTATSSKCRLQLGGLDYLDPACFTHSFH

B1: Ab44 (antibody, human IgG1, kappa, V domains shown)
VH: EVQLVQSGAEVKKPGASVKVSCKASGYTFTDYNIHWVRQAPGQGLEWMGYIYPNNDGTGYNQKFKSRVTMTTDTSTSTAYMELRSLRSDDTAVYYCARGDGNYVGDMDYWGQGTTVTVSS
VL: DIQMTQSPSSLSASVGDRVTITCRASENIYSYLAWYQQKPGKAPKLLIYNAKTLAEGVPSRFSGSGSGTDFTLTISSLQPEDFATYYCQHHYATPFTFGQGTKLEIKR
notes: humanized from Ab8; G1; also called Ab3 HC.1 and Ab3 LC.1
B2: Ab51 (antibody, human IgG1, kappa, V domains shown)
VH: EVQLVQSGAEVKKPGASVKVSCKASGYTFTDYNIHWVRQAPGQGLEWIGYIYPNNDGTGYAQKLQGRVTMTVDTSTSTAYMELRSLRSDDTAVYYCARGDGNYVGDMDYWGQGTTVTVSS
VL: DIQMTQSPSSLSASVGDRVTITCRASENIYSYLAWYQQKPGKPPKLLVYNAKTLAEGVPSRFSGSGSGTDFTLTISSLQPEDFATYYCQHHYATPFTFGQGTKLEIKR
notes: humanized from Ab8; G1; also called Ab3 HC.1b and Ab3 LC.1a
B3: Ab52 (antibody, human IgG1, kappa, V domains shown)
VH: EVQLVQSGAEVKKPGASVKVSCKASGYTFTDYNIHWVRQAPGQGLEWIGYIYPNNDGTGYAQKLQGRVTMTVDTSTSTAYMELRSLRSDDTAVYYCARGDGNYVGDMDYWGQGTTVTVSS
VL: DIQMTQSPSSLSASVGDRVTITCRASENIYSYLAWYQQKPGKAPKLLVYNAKTLAEGVPSRFSGSGSGTDFTLTISSLQPEDFATYYCQHHYATPFTFGQGTKLEIKR
notes: humanized from Ab8; G1; also called Ab3 HC.1b and Ab3 LC.1b
B4: Ab50 (antibody, human IgG1, kappa, V domains shown)
VH: EVQLVQSGAEVKKPGASVKVSCKASGYTFTDYNIHWVRQAPGQGLEWIGYIYPNNDGTGYAQKLQGRVTMTVDTSTSTAYMELRSLRSDDTAVYYCARGDGNYVGDMDYWGQGTTVTVSS
VL: DIQMTQSPSSLSASVGDRVTITCRASENIYSYLAWYQQKPGKAPKLLIYNAKTLAEGVPSRFSGSGSGTDFTLTISSLQPEDFATYYCQHHYATPFTFGQGTKLEIKR
notes: humanized from Ab8; G1; also called Ab3 HC.1b and Ab3 LC.1
B5: Ab47 (antibody, human IgG1, kappa, V domains shown)
VH: EVQLVQSGAEVKKPGASVKVSCKASGYTFTDYNIHWVRQAPGQGLEWIGYIYPNNDGTGYNQKFKSRATLTVDNSTSTAYMELRSLRSDDTAVYYCARGDGNYVGDMDYWGQGTTVTVSS
VL: DIQMTQSPSSLSASVGDRVTITCRASENIYSYLAWYQQKPGKAPKLLIYNAKTLAEGVPSRFSGSGSGTDFTLTISSLQPEDFATYYCQHHYATPFTFGQGTKLEIKR
notes: humanized from Ab8; G1; also called Ab3 HC.1a and Ab3 LC.1

Columns and labels:
[1] = biological target: T1, cyno PRLR ECD-his6 protein; assay: ELISA on ECD
Method: (§1) Plates were blocked for 1 hour with Superblock (Pierce) and washed (3×) with wash buffer (lx PBS (pH 7.4), 0.05% Tween 20). ECD proteins were bound to the appropriate antibody (1 hour) in binding buffer (wash buffer plus 10% Superblock), washed (3×, wash buffer), and then incubated with serial dilutions of antibodies (1 hour) in binding buffer. After washing (3×, wash buffer), secondary antibodies conjugated to HRP were bound (1 hour) in binding buffer, washed (3×, wash buffer), and incubated with TMB substrate (Pierce) to develop signal for 3-5 minutes, stopped with 2N H₂SO₄ and scanned at […]. Curves were fit with GraphPad 5 (Prizm) and EC50's were determined with curve fitting function of GraphPad 5.

[2] = biological target: T2, human PRLR ECD-Fc fusion protein; assay: ELISA on ECD
Method: as §1

[3] = biological target: T3, mouse PRLR on Baf3-mPRLR cells; assay: cell-based or functional assay
[4] = biological target: T4, human PRLR on cells; assay: cell-based or functional assay
[5] = biological target: cyno PRLR on Baf3-cyPRLR cells (cyno); assay: cell-based or functional assay

Row | Binder | EC50 [1] [nM] | EC50 [2] [nM] | Baf3-mPRLR proliferation IC50 [3] [µg/mL] | Baf3-hPRLR proliferation IC50 [4] [µg/mL] | Baf3-cyPRLR proliferation IC50 [5] [µg/mL]
1 | B1 | 0.0945 | 0.0435 | > 30 | 0.3 | 1.76
2 | B2 |  | 0.287 | > 30 | 0.55 | 100
3 | B3 |  | 0.0913 | > 30 | 0.51 | 305
4 | B4 |  | 0.109 | > 30 | 0.51 | 41.6
5 | B5 | 0.119 | 0.0819 | > 30 | 0.4 | 3.01
